Columns and labels:
[1] = target: human CD47 on the cell surface (CEM, Raji and other human tumor cells, human RBCs) (human) (UniProt Q08722); test: flow cytometry, human RBCs, batch 2
[2] = target: T1, hCD47-ECD/Fc protein (Sinobiological) (human, UniProt Q08722 19-139, biotinylated in the Octet assay, sites not stated); test: BLI (Octet RED96), biotin-hCD47-ECD/Fc on SA sensors, 1:1 model;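 also: test antibodies as analytes, 300 s association then 300 s dissociation in running buffer, with benchmark reference antibodies run as controls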
T1 construct: extracellular domain; Bought protein; also called human CD47-Fc antigen; recombinant hCD47-ECD/Fc; not shown: Fc part of the bought fusion protein

[3] = target: T2, human CD47 on the cell surface (CEM, Raji and other human tumor cells, human RBCs) (human, UniProt Q08722 19-323); test: flow cytometry, CEM cells, batch 2; CEM tumor cells, batch 2
T2 construct: whole, on cells; also called CD47 on tumor cell surface; CD47 on RBCs

[4] = target: T2, human CD47 on the cell surface (CEM, …); test: flow cytometry, Raji cells, batch 3; Raji tumor cells, batch 3
[5] = target: T2, human CD47 on the cell surface (CEM, …); test: cell-based or functional assay

Molecule	max MFI [1]	Kd [2]	koff [2]	kon [2]	EC50 [3]	EC50 [4]	EC50 of macrophage phagocytosis of CEM cells, donor A [5]	EC50 of macrophage phagocytosis of CEM cells, donor B [5]	Max. Phagocytosis (%), donor A [5]	Max. Phagocytosis (%), donor B [5]
Isotype control (RBC binding, Table 15) (antibody)	105 MFI	–	–	–	–	–	–	–	–	–
TAC2407 (antibody, V domains shown, Benchmark anti-CD47 antibody; also called 13H3; TJC4) VH: EVQLVESGGGLVKPGGSLRLSCAASGLTFERAWMNWVRQAPGKGLEWVGRIKRKTDGETTDYAAPVKGRFSISRDDSKNTLYLQMNSLKTEDTAVYYCAGSNRAFDIWGQGTMVTVSS VL: DIVMTQSPDSLAVSLGERATINCKSSQSVLYAGNNRNYLAWYQQKPGQPPKLLINQASTRASGVPDRFSGSGSGTEFTLIISSLQAEDVAIYYCQQYYTPPLAFGGGTKLEIK	–	1.4 nM	0.000729 s⁻¹	520000 M⁻¹ s⁻¹	1.18 nM	1.97 nM	4.4 nM	0.83 nM	29.7%	29%
